Measurements from US20170173114A1, “METHODS AND COMPOSITIONS FOR INDUCTION OF UCP1 EXPRESSION” (Joslin Diabetes Center, Inc., priority 2014, published 2017).

Legend:
[1] = test system: PPARγ, aP2, FAS, PRDM16, PGC1α, CIDEA; test: Adipogenic and brown fat marker mRNA expression in WT-1 brown preadipocytes; type: cell-based, murine
Procedure: Total RNA was isolated with QIAzol lysis reagent (Qiagen, Valencia, Calif.) and purified by RNeasy Mini columns (Qiagen) following the manufacture's instructions. cDNA was prepared from total RNA using the Advantage RT-PCR kit (BD Biosciences, Palo Alto, Calif.) according to manufacturer's instructions. Diluted cDNA was used in a PCR reaction with SYBR Green Master Mix (Applied Biosystems, Foster City, Calif.) and primers specifically designed for detection of the gene of interest. PCR reactions were run in duplicate for each sample and quantitated in the ABI Sequence Detection System (Applied Biosystems). Data were expressed as arbitrary units after normalization to levels of expression of internal controls for each sample. Sequences of primers for specific genes are each obtained from the published literature or designed using publically available gene sequence databases. Unless otherwise indicated, gene expression data described in the examples below was obtained using QPCR.
The effect of FGF6 on differentiation of WT-1 murine brown preadipocytes was also examined. WT-1 cells can be induced to undergo brown adipocyte differentiation, characterized by lipid accumulation and expression of adipogenic and brown fat markers, as described above (Klein et al. (1999) J Biol Chem 274:34795; Tseng et al. (2005) Nat Cell Biol 7:601). WT-1 cells were treated with FGF6 in growth media (DMEM+10% FBS), a vehicle control (“control” or “C” referred to in FIGS. 3A-D), or induction media (“induction” or “I” referred to in FIGS. 3A-D) as described above for seven days. Following the treatment, cells were examined for the color of the culture media in combination with oil Red O staining, expression of adipogenic markers, expression of brown fat markers, immunofluorescent staining of cells with UCP1 and DPAI, and Western blot analysis to determine the presence of UCP1 and β-tubulin. The results are described in FIGS. 3A to 3D.
FGF2, FGF6 and FGF9 were used at a dosage of 50 ng/mL, 100 ng/mL, 200 ng/mL or 300 ng/mL. FGF21 was used at the dosage of 50 ng/ml and 500 ng/mL. The concentration of BMP7 was 3.3 nM. RNA was isolated and UCP1 and PPARγ expression levels were evaluated by quantitative reverse transcription polymerase chain reaction (Q-RT-PCR) analysis after 24 hours (i.e., 1 day) (FIG. 14A), 2 days (FIG. 14B), 5 days (FIG. 14C) and 7 days (FIG. 14D) of treatment. All experiments were performed triplicate and the data are presented as mean+/−SEM.
FGF2, FGF6 and FGF9 were used at a dosage of 200 ng/mL. FGF21 was used at a dosage of 500 ng/mL. The concentration of BMP7 was 3.3 nM. mRNA was isolated and UCP1 and PPARγ expression levels were evaluated by quantitative reverse transcription polymerase chain reaction (Q-RT-PCR) analysis after 24 hours (i.e., 1 day), 2 days, 5 days and 7 days of treatment (FIG. 15). All experiments were performed triplicate and the data are presented as mean+/−SEM.

UCP1 and PTGS2 = UCP1 and PTGS2 mRNA in WT-1 cells differentiated with BMP7; type: cell-based, murine; conditions: 200 mg/mL FGF6 for 32 hours after 8 days BMP7; vs vehicle
Procedure: WT-1 preadipocyte cells were exposed to 3.3 nM BMP7 in growth media (DMEM-high glucose, 10% FBS, supplemented with 20 nM insulin and 1 nM triiodothyronine (T3)) for 8 days in order to induce differentiation of the adipocytes (Tseng Y. H. et al., (2008) Nature 454(7207):1000-1004). Following day 8 of treatment, the cells were exposed to […] of FGF6 protein, or vehicle control, in growth media for 32 hours. Cells were then collected, and UCP1 and PTGS2 mRNA expression levels were determined according to the quantitative RT-PCR assay described above.

[2] = test system: 3T3-F442A white preadipocytes; test: 2-deoxy-[3H]glucose uptake in 3T3-F442A white preadipocytes; type: cell-based; conditions: FGF6 overexpressing vs control and EGF
Procedure: The following glucose uptake assay was used to determine whether FGF6 could impact cellular glucose uptake. Specifically, glucose uptake was monitored in WT-1 brown preadipocytes and 3T3-F442A white preadipocytes in the presence or absence of FGF6. After serum starvation in DMEM/H medium containing 1% of BSA for 2-3 h, cells were washed with HEPES buffer and then incubated with or without 100 nM insulin for 30 min in DMEM/H medium containing 1% of BSA. Glucose transport was determined by the addition of 2-deoxy-[3H]glucose (0.1 mM, 0.5 μCi/mL; PerkinElmer Life and Analytical Science, Waltham, Mass.). After 5 minutes of incubation, the reaction was stopped by ice-cold PBS and cells were washed twice with ice-cold PBS. Cells were then lysed in 0.1% SDS, and glucose uptake was assessed in 4 mL of scintillant using Beckman LS6500 scintillation counter (Beckman Coulter, Indianapolis Ind.). Nonspecific 2-deoxy-[3H]glucose uptake was measured in the presence of cytochalasin B (20 μM) and was subtracted from the total uptake to get specific glucose uptake. Results were expressed as the mean±s.e.m. of the indicated number of experiments. The protein content was determined by the Bradford method.

B1: FGF6: fibroblast growth factor 6; recombinant human FGF from R&D Systems, or mouse FGF6 cDNA overexpressed by lentiviral vector (protein)
chain: KRQRRLYCNVGIGFHLQVLPDGRISGTHEENPYSLLEISTVERGVVSLFGVRSALFVAMNSKGRLYATPSFQEECKFRETLLPNNYNAYESDLYQGTYIALSKYGRVKRGSKVSPIMTVTHFLPRI
PPARγ expression level, time course ([1]; 200 ng/mL with insulin and T3, 1, 2, 5, 7 days): very low levels of PPARγ
PPARγ expression level ([1]; 50-300 ng/mL with insulin and T3, 1, 2, 5 and 7 days): very low levels of PPARγ
expression of transcriptional regulators of UCP1 (PGC1α, PPARγ, PRDM16) ([1]; 50-300 ng/mL, three days): did not increase
mRNA expression of other brown fat markers (PRDM16, PGC1α, CIDEA) ([1]; WT-1, seven days): did not, in contrast, have as significant an impact
mRNA expression of adipogenic markers (PPARγ, aP2, FAS) ([1]; WT-1, seven days, control, induction media or FGF6): only the induction media significantly increased each of the adipogenic markers
PTGS2 levels in cells differentiated using BMP7 (UCP1 and PTGS2): increased
UCP1 expression in cells differentiated using BMP7 (UCP1 and PTGS2): induced UCP1 expression
glucose uptake level in F442A (white) preadipocytes [2]: increased
